Where no end group is shown, it is not given here. [ ]: non-standard residue; d: D form. pT = C[C@@H](OP(=O)(O)O)[C@H](N)C(=O)O; NMeE = CN[C@@H](CCC(=O)O)C(=O)O; pS = N[C@@H](COP(=O)(O)O)C(=O)O; NMeD = CN[C@@H](CC(=O)O)C(=O)O
Each substance was assayed against FBXW7 (Homo sapiens, UniProt Q969H0) (assay: Peptides immobilised on membranes screened for the ability to bind FBXW7).
Format: binding
Text: Peptides derived from DISC1 and containing the putative phospho-degron motif were immobilised on membranes and screened for the ability to bind FBXW7. […] (SEQ ID NO: 114).
The 7-mer peptide P-pT-P-P-G-pS-H (SEQ ID NO: 21) was used as the basis for further investigation. L- and D-forms of aspartic acid and glutamic acid (upper and lower case letters respectively) as well as N-methylated versions of each (designated “m”) were incorporated at positions 198 and 202.

Chain of FBXW7 (Q969H0 whole entry): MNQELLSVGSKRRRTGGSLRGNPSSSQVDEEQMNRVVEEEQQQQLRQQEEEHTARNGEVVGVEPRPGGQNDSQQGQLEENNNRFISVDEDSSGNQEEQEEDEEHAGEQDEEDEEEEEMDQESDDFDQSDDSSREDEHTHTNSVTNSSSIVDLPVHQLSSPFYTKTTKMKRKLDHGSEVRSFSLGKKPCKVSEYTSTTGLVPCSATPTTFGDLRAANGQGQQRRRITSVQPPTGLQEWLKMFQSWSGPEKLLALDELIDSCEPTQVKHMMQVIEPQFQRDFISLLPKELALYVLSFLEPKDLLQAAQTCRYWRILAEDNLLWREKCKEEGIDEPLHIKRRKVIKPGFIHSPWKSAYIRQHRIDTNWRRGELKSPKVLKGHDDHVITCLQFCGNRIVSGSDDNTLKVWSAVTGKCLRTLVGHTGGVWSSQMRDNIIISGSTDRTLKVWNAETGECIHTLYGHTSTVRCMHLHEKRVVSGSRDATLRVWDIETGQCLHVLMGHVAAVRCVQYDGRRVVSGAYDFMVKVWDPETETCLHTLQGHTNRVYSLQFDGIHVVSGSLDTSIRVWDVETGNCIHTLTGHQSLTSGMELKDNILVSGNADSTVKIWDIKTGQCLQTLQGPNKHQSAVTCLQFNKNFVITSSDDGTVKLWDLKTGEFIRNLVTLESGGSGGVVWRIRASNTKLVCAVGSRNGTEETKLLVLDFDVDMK

binding to FBXW7	Substance
retain or have improved binding to FBXW7	P-P-G-mE-H (PPG[NMeE]H) [Peptide A189]
retain or have improved binding to FBXW7	a-d-P-P-a-mE-H ([dA][dD]PP[dA][NMeE]H) [Peptide A166]
retain or have improved binding to FBXW7	P-e-P-p-G-mE-H (P[dE]P[dP]G[NMeE]H) [Peptide A135]
retain or have improved binding to FBXW7	P-E-P-P-G-mD-H (PEPPG[NMeD]H) [Peptide 64]
retain or have improved binding to FBXW7	P-d-P-P-G-mE-k (P[dD]PPG[NMeE][dK]) [Peptide A195]
retain or have improved binding to FBXW7	a-d-P-P-G-mE-h ([dA][dD]PPG[NMeE][dH]) [Peptide A164]
retain or have improved binding to FBXW7	G-e-P-P-G-mE-H (G[dE]PPG[NMeE]H) [Peptide 147]
retain or have improved binding to FBXW7	P-d-P-P-G-mE-H (P[dD]PPG[NMeE]H) [Peptide 82]
retain or have improved binding to FBXW7	a-d-P-p-G-mE-H ([dA][dD]P[dP]G[NMeE]H) [Peptide A161]
retain or have improved binding to FBXW7	L-e-P-P-G-mE-H (L[dE]PPG[NMeE]H) [Peptide A137]
retain or have improved binding to FBXW7	P-e-P-P-G-mE-H (P[dE]PPG[NMeE]H) [Peptide 55]
retain the ability to bind FBXW7	P-pT-P-P-G-pS-H [P-pT-P-P-G-pS-H] (P[pT]PPG[pS]H)
retain or have improved binding to FBXW7	P-e-P-P-G-mE (P[dE]PPG[NMeE]) [Peptide A124]
retain or have improved binding to FBXW7	p-d-P-P-G-mE-h ([dP][dD]PPG[NMeE][dH]) [Peptide A184]
retain or have improved binding to FBXW7	P-d-P-P-G-mE (P[dD]PPG[NMeE]) [Peptide A85]
retain or have improved binding to FBXW7	G-d-p-p-G-mE-h (G[dD][dP][dP]G[NMeE][dH]) [Peptide A174]
retain or have improved binding to FBXW7	G-d-P-p-a-mE-H (G[dD]P[dP][dA][NMeE]H) [Peptide A170]
retain or have improved binding to FBXW7	P-pT-P-P-G-pS-H [A80] (P[pT]PPG[pS]H) [Peptide A80]
retain or have improved binding to FBXW7	e-P-P-G-mE-H ([dE]PPG[NMeE]H) [Peptide A26]
retain or have improved binding to FBXW7	P-pT-P-P-G-pS-H [A139] (P[pT]PPG[pS]H) [Peptide A139]
retain or have improved binding to FBXW7	G-d-P-P-G-mE [Peptide A5]
retain or have improved binding to FBXW7	a-d-p-p-G-mE-H ([dA][dD][dP][dP]G[NMeE]H) [Peptide A163]
retain or have improved binding to FBXW7	a-mD-P-P-G-mE-H ([dA][NMeD]PPG[NMeE]H) [Peptide A51]

binding to FBXW7	Substance
retain or have improved binding to FBXW7	G-d-P-p-a-mE-h (G[dD]P[dP][dA][NMeE][dH]) [Peptide A171]
retain or have improved binding to FBXW7	G-mD-P-P-Q-mE-H (G[NMeD]PPQ[NMeE]H) [Peptide A52]
retain or have improved binding to FBXW7	d-P-P-G-mE-H ([dD]PPG[NMeE]H) [Peptide A86]
retain or have improved binding to FBXW7	p-d-P-P-G-mE-H ([dP][dD]PPG[NMeE]H) [Peptide A181]
retain or have improved binding to FBXW7	G-mE-P-p-G-mE-H (G[NMeE]P[dP]G[NMeE]H) [Peptide A76]
retain or have improved binding to FBXW7	a-d-p-p-a-mE-h ([dA][dD][dP][dP][dA][NMeE][dH]) [Peptide A169]
retain the ability to bind FBXW7	P-P-pT-P-P-G-pS-H (PP[pT]PPG[pS]H)
retain or have improved binding to FBXW7	P-E-P-P-G-mD (PEPPG[NMeD]) [Peptide A144]
retain or have improved binding to FBXW7	P-d-P-P-G-mE-K (P[dD]PPG[NMeE]K) [Peptide A194]
retain or have improved binding to FBXW7	G-d-P-a-G-mE-k (G[dD]P[dA]G[NMeE][dK]) [Peptide A193]
retain or have improved binding to FBXW7	P-A-P-P-G-mE-H (PAPPG[NMeE]H) [Peptide A82]
retain or have improved binding to FBXW7	G-d-P-P-a-mE-k (G[dD]PP[dA][NMeE][dK]) [Peptide A196]
retain or have improved binding to FBXW7	P-pT-P-P-G-pS-H [A119] (P[pT]PPG[pS]H) [Peptide A119]
retain or have improved binding to FBXW7	P-pT-P-P-G-pS-H [A185] (P[pT]PPG[pS]H) [Peptide A185]
retain or have improved binding to FBXW7	G-d-p-p-G-mE-H (G[dD][dP][dP]G[NMeE]H) [Peptide A172]
retain or have improved binding to FBXW7	a-d-P-P-a-mE-k ([dA][dD]PP[dA][NMeE][dK]) [Peptide A197]
retain or have improved binding to FBXW7	P-e-p-P-G-mE-H (P[dE][dP]PG[NMeE]H) [Peptide A136]
retain or have improved binding to FBXW7	a-mE-P-P-G-mE-H ([dA][NMeE]PPG[NMeE]H) [Peptide A71]
retain or have improved binding to FBXW7	G-d-P-A-G-mE-K (G[dD]PAG[NMeE]K) [Peptide A192]
retain or have improved binding to FBXW7	L-d-P-P-G-mE-H (L[dD]PPG[NMeE]H) [Peptide A98]
retain or have improved binding to FBXW7	G-d-p-P-G-mE-H (G[dD][dP]PG[NMeE]H) [Peptide A180]
retain or have improved binding to FBXW7	P-E-P-P-Q-mD-H (PEPPQ[NMeD]H) [Peptide A151]
retain or have improved binding to FBXW7	a-d-p-P-G-mE-H ([dA][dD][dP]PG[NMeE]H) [Peptide A162]

binding to FBXW7	Substance
retain or have improved binding to FBXW7	P-e-P-P-q-mE-H (P[dE]PP[dQ][NMeE]H) [Peptide A132]
retain or have improved binding to FBXW7	a-d-P-p-a-mE-h ([dA][dD]P[dP][dA][NMeE][dH]) [Peptide A168]
retain or have improved binding to FBXW7	P-d-p-P-G-mE-H (P[dD][dP]PG[NMeE]H) [Peptide A97]
retain or have improved binding to FBXW7	G-d-P-P-Q-mE-H (G[dD]PPQ[NMeE]H) [Peptide A12]
retain or have improved binding to FBXW7	G-d-P-P-q-mE-H (G[dD]PP[dQ][NMeE]H) [Peptide A13]
Detectable binding	GPEVPPTPPGSHSAFTSSFSFIRL (listed as Homo sapiens)
retain or have improved binding to FBXW7	P-A-P-P-G-mD-H (PAPPG[NMeD]H) [Peptide A102]
retain or have improved binding to FBXW7	G-A-P-P-G-mE-H (GAPPG[NMeE]H) [Peptide A22]
retain or have improved binding to FBXW7	P-e-P-P-G-mD-H (P[dE]PPG[NMeD]H) [Peptide A101]
retain or have improved binding to FBXW7	G-d-p-p-a-mE-H (G[dD][dP][dP][dA][NMeE]H) [Peptide A173]
retain or have improved binding to FBXW7	a-d-P-P-a-mE-h ([dA][dD]PP[dA][NMeE][dH]) [Peptide A165]
retain or have improved binding to FBXW7	G-e-P-P-G-mE (G[dE]PPG[NMeE]) [Peptide A25]
retain or have improved binding to FBXW7	G-d-P-P-G-mE-H (G[dD]PPG[NMeE]H) [Peptide 173]
retain or have improved binding to FBXW7	l-d-P-P-G-mE-H ([dL][dD]PPG[NMeE]H) [Peptide A99]
retain or have improved binding to FBXW7	l-mE-P-P-G-mE-H ([dL][NMeE]PPG[NMeE]H) [Peptide A79]
retain or have improved binding to FBXW7	G-mE-P-P-q-mE-H (G[NMeE]PP[dQ][NMeE]H) [Peptide A73]
retain or have improved binding to FBXW7	l-e-P-P-G-mE-H ([dL][dE]PPG[NMeE]H) [Peptide A138]
retain or have improved binding to FBXW7	P-e-P-P-Q-mE-H (P[dE]PPQ[NMeE]H) [Peptide A131]
retain or have improved binding to FBXW7	G-d-p-p-a-mE-h (G[dD][dP][dP][dA][NMeE][dH]) [Peptide A175]
retain the ability to bind FBXW7	P-pT-P-P-G-pS-H-S (P[pT]PPG[pS]HS)
retain or have improved binding to FBXW7	a-e-P-P-G-mE-H ([dA][dE]PPG[NMeE]H) [Peptide A130]

Substance	binding to FBXW7
G-mD-P-p-G-mE-H (G[NMeD]P[dP]G[NMeE]H) [Peptide A56]	retain or have improved binding to FBXW7
P-E-P-P-G-d-H (PEPPG[dD]H) [Peptide 16]	retain or have improved binding to FBXW7
G-mD-P-P-G-mE (G[NMeD]PPG[NMeE]) [Peptide A45]	retain or have improved binding to FBXW7
L-mD-P-P-G-mE-H (L[NMeD]PPG[NMeE]H) [Peptide A58]	retain or have improved binding to FBXW7
P-pT-P-P-G-pS-H [A100] (P[pT]PPG[pS]H) [Peptide A100]	retain or have improved binding to FBXW7

— US9981005B2, “Methods for increasing DISC1 in a subject with schizophrenia or bipolar disorder by an antagonist inhibiting DISC1 binding to FBXW7” (The University Court of the University of Glasgow, priority 2013, dated 2018)
